# Reference: patent US20200332015A1 (NAMAB THERAPEUTICS, published 2020)
# T1: mouse Fc-tagged mouse CD137 (R&D Systems, cat. 937-4B-050) (mouse, UniProt P20334 24-187)
# T1 construct: also called mouse CD137-Fc chimeric protein
# T1 sequence (looked up): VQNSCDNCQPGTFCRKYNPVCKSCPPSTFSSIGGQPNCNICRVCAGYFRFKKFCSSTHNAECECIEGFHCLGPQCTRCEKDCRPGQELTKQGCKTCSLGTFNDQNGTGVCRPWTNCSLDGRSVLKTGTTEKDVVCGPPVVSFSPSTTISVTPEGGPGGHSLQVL
# How the values were obtained:
# [1] = target: human PDL1-Fc chimeric protein (human, UniProt Q9NZQ7 19-238, limits assumed); assay: SPR T200, antigen-Fc captured, molecule as analyte
# Method: (§1) Affinity to PDL1 of the different species was determined by SPR measurements using a Biacore T200 device (GE Healthcare). An antibody specific for the Fc region of human IgGs was immobilized on a sensor chip (CM5 sensor chip, GE Healthcare) by amine-coupling. For all formats, with the exception of the Fc containing Morrison formats, PDL1-Fc chimeric protein from different species were captured by the immobilized antibody. Three-fold serial dilutions of the molecules specific for PDL1 (0.12-90 nM) were injected into the flow cells for three minutes and dissociation was monitored for 10 minutes. After each injection cycle, surfaces were regenerated with one injection of a 3 M MgCl₂ solution. The apparent dissociation (kd) and association (kₐ) rate constants and the apparent dissociation equilibrium constant (KD) were calculated using one-to-one Langmuir binding model. Affinity to CD137 of the different species was determined using the identical setup as for PDL1 with the exception that CD137-Fc chimeric proteins from different species were captured by the immobilized antibody.
# [2] = target: T1, mouse Fc-tagged mouse CD137 (R&D …); assay: SPR T200, antigen-Fc captured, molecule as analyte
# Method: as §1
# [3] = target: T2, Fc tagged human CD137 (R&D Systems, cat. 838-4B-100) (human, UniProt Q07011 24-186); assay: SPR T200, antigen-Fc captured, molecule as analyte
# T2 construct: also called CD137 Fc chimera; human CD137-Fc chimeric protein
# Method: as §1
# [4] = target: T3, human CD137 expressed on Jurkat cells (human, UniProt Q07011 24-255); assay: cell-based or functional assay
# [5] = target: T3, human CD137 expressed on Jurkat cells; assay: cell-based or functional assay; remark: listed apart in the source
# [6] = target: T3, human CD137 expressed on Jurkat cells; assay: cell-based or functional assay; remark: listed apart in the source
# [7] = target: T4, human PDL1 extracellular domain (human, UniProt Q9NZQ7 19-238); assay: SPR T200, Morrison format captured, ECD analyte
# T4 construct: extracellular domain; Analyte for the Fc containing Morrison formats
# Method: as §1
# The Fc containing formats were directly captured by the antibody specific for the Fc region of human IgGs. Two-fold serial dilutions of PDL1 extracellular domain or CD137 extracellular domain ranging from 90 to 0.35 nM were tested for binding to the IgG captured on the biosensor chip. After each injection cycle, surfaces were regenerated with one injection of a 3 M MgCl2 solution.
# [8] = target: cynomolgus PDL1-Fc chimeric protein (cynomolgus, UniProt G7PSE7 19-238); assay: SPR T200, antigen-Fc captured, molecule as analyte
# Sequence of cynomolgus PDL1-Fc chimeric protein (G7PSE7 entry or part of it mutant): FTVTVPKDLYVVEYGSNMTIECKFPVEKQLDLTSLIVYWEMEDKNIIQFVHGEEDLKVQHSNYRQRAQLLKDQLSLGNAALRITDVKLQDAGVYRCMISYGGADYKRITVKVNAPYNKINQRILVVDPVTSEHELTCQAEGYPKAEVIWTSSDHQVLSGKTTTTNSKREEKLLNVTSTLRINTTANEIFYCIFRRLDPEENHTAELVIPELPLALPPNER
# Method: as §1
Kd [1],koff [1],kon [1],Kd [3],koff [3],kon [3],other results,Binder
67 pM,0.00011 s⁻¹,1.7e+06 M⁻¹ s⁻¹,3700 pM,0.00075 s⁻¹,200000 M⁻¹ s⁻¹,Kd [2]: 510000 pM; koff [2]: 0.27 s⁻¹; kon [2]: 540000 M⁻¹ s⁻¹,"PRO1125 (38-02-A04 scDb-i/33_03_G02 sc02 IF scDb-o) (bispecific antibody, scDb) DIQMTQSPSSLSASVGDRVTITCQASQSINDYLAWYQQKPGKSPKLLIYKASTLASGVPSRFSGSGSGTDFTLTISSLQPEDFATYYCQQGYIITDIDNVFGTGTKVTVLGGGGGSQVQLQESGPGLVKPSETLSLTCKVSGFSFSNSYWICWIRQPPGKGLEWIGCTFVGSSDSTYYANWAKGRVTISVDSSKNQFSLKLSSVTAADTAVYYCARHPSDAVYGYANNLWGQGTLVTVSSGGGGSGGGGSGGGGSGGGGSIQMTQSPSSLSASVGDRVTITCQASQSINNVLAWYQQKPGKAPKLLIYRASTLASGVPSRFSGSGSGTDFTLTISSLQPEDFATYYCQSSYGNYGDFGTGTKVTVLGGGGGSQVQLQESGPGLVKPSETLSLTCKVSGFSFSSGYDMCWVRQPPGKGLEWIACVVAGSVDITYYASWAKGRVTISVDSSKNQFSLKLSSVTAADTAVYFCARKDAYSDAFNLWGQGTLVTVSS"
160 pM,0.00019 s⁻¹,1.2e+06 M⁻¹ s⁻¹,1200 pM,0.0021 s⁻¹,1.7e+06 M⁻¹ s⁻¹,"EC50 NFkB-luciferase, CHO-PDL1 cells, 6 h, + HSA [4]: 0.0709 µg/mL; Top of curve fit, NFkB-luciferase, CHO-PDL1 cells, 6 h, + HSA [4]: 40.1; EC50 NFkB-luciferase, CHO-PDL1 cells, 24 h, + HBA (so in the source) [5]: 0.121 µg/mL; Top of curve fit, NFkB-luciferase, CHO-PDL1 cells, 24 h, + HBA (so in the source) [5]: 20.5; max. activation, NF-kB reporter gene, CHO-PD-L1, 24h [6]: 36.2%; rel. IC50 (urelumab/test), NF-kB reporter gene, CHO-PD-L1, 24h [6]: 0.64 ratio","PRO1058 (38_27_C05 scDb-i/33-03-G02 sc01 scDb-o/mxr HSA (23-13-A01-sc03, sk17sh4)) (other, Trispecific scDb-scFv; also called PR01058) DIQMTQSPSSLSASVGDRVTITCQASQSINDYLAWYQQKPGKAPKLLIYKASTLASGVPSRFSGSGSGTDFTLTISSLQPEDFATYYCQQGYIITDIDNVFGTGTKVTVLGGGGGSQVQLQESGPGLVKPSETLSLTCKVSGFSFNNDYDMCWIRQPPGKGLEWIGCIDTGDGSTYYASWAKGRVTISVDSSKNQFSLKLSSVTAADTAVYYCAREAASSSGYGMGYFDLWGQGTLVTVSSGGGGSGGGGSGGGGSGGGGSIQMTQSPSSLSASVGDRVTITCQSSQSVYDNNWLAWYQQKPGKAPKLLIYRASNLASGVPSRFSGSGSGTDFTLTISSLQPEDFATYYCQGTYLSSNWYWAFGTGTKVTVLGGGGGSQVQLQESGPGLVKPSETLSLTCKVSGFSFSSGYDMCWIRQPPGKGLEWIGCVVAGSVDITYYASWAKGRVTISVDSSKNQFSLKLSSVTAADTAVYYCARKDAYSDAFNLWGQGTLVTVSSGGGGSGGGGSVVMTQSPSSLSASVGDRVTITCQASQIISSRSAWYQQKPGQPPKLLIYQASKLASGVPSRFSGSGSGTDFTLTISSLQPEDFATYYCQCTYIDSNFGAFGGGTKLTVLGGGGGSGGGGSGGGGSGGGGSEVQLVESGGGLVQPGGSLRLSCAASGFSFSSSYWICWVRQAPGKGLEWVGCVFTGDGTTYYASWAKGRFTISRDNSKNTVYLQMNSLRAEDTATYFCARPVSVYYYGMDLWGQGTLVTVSS"
28 pM,7.6e-05 s⁻¹,2.8e+06 M⁻¹ s⁻¹,3400 pM,0.00084 s⁻¹,250000 M⁻¹ s⁻¹,Kd [2]: 420000 pM; koff [2]: 0.19 s⁻¹; kon [2]: 450000 M⁻¹ s⁻¹,"PRO1134 (38-02-A04 sc01 scDb-i/33_03_G02 sc07 GL VH3 scDb-o) (bispecific antibody, scDb) DIQMTQSPSSLSASVGDAVTITCQASQSINDYLAWYQQKPGKSPKLLIYKASTLASGVPSRFSGSGSGTDFTLTISSLQPEDFATYYCQQGYIITDIDNVFGTGTKVTVLGGGGGSQVQLQESGPGLVKPSETLSLTCKVSGFSFSNSYWICWIRQPPGKGLEWIGCTFVGSSDSTYYANWAKGRVTISVDSSKNQFSLKLSSVTAADTAVYYCARHPSDAVYGYANNLWGQGTLVTVSSGGGGSGGGGSGGGGSGGGGSIQMTQSPSSLSASVGDRVTITCQASQSINNVLAWYQQKPGKAPKLLIYRASTLASGVPSRFSGSGSGTDFTLTISSLQPEDFATYYCQSSYGNYGDFGTGTKVTVLGGGGGSEVQLVESGGGLVQPGGSLRLSCAASGFSFSSGYDMCWVRQAPGKGLEWVGCVVAGSVDITYYASWAKGRFTISRDNSKNTVYLQMNSLRAEDTATYYCARKDAYSDAFNLWGPGTLVTVSS"
83 pM,0.00014 s⁻¹,1.6e+06 M⁻¹ s⁻¹,2200 pM,0.0022 s⁻¹,1e+06 M⁻¹ s⁻¹,–,"PRO966 (= PRO1052) (38_27_C05 sc01 scDb-i/33-03-G02 sc01 scDb-o/19-01-H04-sc03 scFv) (other, Trispecific scDb-scFv) DIQMTQSPSSLSASVGDRVTITCQASQSINDYLAWYQQKPGKAPKLLIYKASTLASGVPSRFSGSGSGTDFTLTISSLQPEDFATYYCQQGYIITDIDNVFGTGTKVTVLGGGGGSQVQLQESGPGLVKPSETLSLTCKVSGFSFNNDYDMCWIRQPPGKGLEWIGCIDTGDGSTYYASWAKGRVTISVDSSKNQFSLKLSSVTAADTAVYYCAREAASSSGYGMGYFDLWGQGTLVTVSSGGGGSGGGGSGGGGSGGGGSIQMTQSPSSLSASVGDRVTITCQSSQSVYDNNWLAWYQQKPGKAPKLLIYRASNLASGVPSRFSGSGSGTDFTLTISSLQPEDFATYYCQGTYLSSNWYWAFGTGTKVTVLGGGGGSQVQLQESGPGLVKPSETLSLTCKVSGFSFSSGYDMCWIRQPPGKGLEWIGCVVAGSVDITYYASWAKGRVTISVDSSKNQFSLKLSSVTAADTAVYYCARKDAYSDAFNLWGQGTLVTVSSGGGGSGGGGSIQMTQSPSSLSASVGDRVTITCQSSESVYSNNQLSWYQQKPGQPPKLLIYDASDLASGVPSRFSGSGSGTDFTLTISSLQPEDFATYYCAGGFSSSSDTAFGGGTKLTVLGGGGGSGGGGSGGGGSGGGGSEVQLVESGGGLVQPGGSLRLSCAASGFSLSSNAMGWVRQAPGKGLEYIGIISVGGFTYYASWAKGRFTISRDNSKNTVYLQMNSLRAEDTATYFCARDRHGGDSSGAFYLWGQGTLVTVSS"
–,–,–,–,–,–,Kd [7]: 38 pM; koff [7]: 5e-05 s⁻¹; kon [7]: 1.3e+06 M⁻¹ s⁻¹,"PRO1062 (33-03-G02 sc01 IgG1 HC with 38_27_C05 sc01 scFv, PDL1/CD137(scFv) silent Morrison) (bispecific antibody, also called PR01062; Morrison-H) light: DIQMTQSPSSLSASVGDRVTITCQASQSINDYLAWYQQKPGKAPKLLIYKASTLASGVPSRFSGSGSGTDFTLTISSLQPEDFATYYCQQGYIITDIDNVFGTGTKVTVLGTVAAPSVFIFPPSDEQLKSGTASVVCLLNNFYPREAKVQWKVDNALQSGNSQESVTEQDSKDSTYSLSSTLTLSKADYEKHKVYACEVTHQGLSSPVTKSFNRGEC heavy: QVQLQESGPGLVKPSETLSLTCKVSGFSFSSGYDMCWIRQPPGKGLEWIGCVVAGSVDITYYASWAKGRVTISVDSSKNQFSLKLSSVTAADTAVYYCARKDAYSDAFNLWGQGTLVTVSSASTKGPSVFPLAPSSKSTSGGTAALGCLVKDYFPEPVTVSWNSGALTSGVHTFPAVLQSSGLYSLSSVVTVPSSSLGTQTYICNVNHKPSNTKVDKRVEPKSCDKTHTCPPCPAPEAAGGPSVFLFPPKPKDTLMISRTPEVTCVVVDVSHEDPEVKFNWYVDGVEVHNAKTKPREEQYNSTYRVVSVLTVLHQDWLNGKEYKCKVSNKALGAPIEKTISKAKGQPREPQVYTLPPSREEMTKNQVSLTCLVKGFYPSDIAVEWESNGQPENNYKTTPPVLDSDGSFFLYSKLTVDKSRWQQGNVFSCSVMHEALHNHYTQKSLSLSPGKGGGGSGGGGSIQMTQSPSSLSASVGDRVTITCQASQSINNVLAWYQQKPGKAPKLLIYRASTLASGVPSRFSGSGSGTDFTLTISSLQPEDFATYYCQSSYGNYGDFGTGTKVTVLGGGGGSGGGGSGGGGSGGGGSQVQLQESGPGLVKPSETLSLTCKVSGFSFSNSYWICWIRQPPGKGLEWIGCTFVGSSDSTYYANWAKGRVTISVDSSKNQFSLKLSSVTAADTAVYYCARHPSDAVYGYANNLWGQGTLVTVSS"
45 pM,0.00027 s⁻¹,6e+06 M⁻¹ s⁻¹,–,–,–,Kd [8]: 53 pM; koff [8]: 0.00032 s⁻¹; kon [8]: 5.9e+06 M⁻¹ s⁻¹,"PRO1013 (37-20-B03 CDR, VH1, scFv) (scFv, its row bears no clone label) scFv: DIQMTQSPSSLSASVGDRVTITCQASQSIGTYLAWYQQKPGKAPKLLIYRAFILASGVPSRFSGSGSGTDFTLTISSLQPEDFATYYCQSNFYSDSTTIGPNAFGTGTKVTVLGGGGGSGGGGSGGGGSGGGGSQVQLVQSGAEVKKPGASVKVSCKASGFSFNSDYWIYWVRQAPGQGLEWMGSIYGGSSGNTQYASWAQGRVTMTRDTSISTAYMELSSLRSEDTAVYYCARGYVDYGGATDLWGQGTLVTVSS"
76 pM,0.00016 s⁻¹,2.1e+06 M⁻¹ s⁻¹,–,–,–,Kd [8]: 94 pM; koff [8]: 0.0002 s⁻¹; kon [8]: 2.2e+06 M⁻¹ s⁻¹,"PRO830 (33-03-G02 CDR, scFv) (scFv) scFv: DIQMTQSPSSLSASVGDRVTITCQASQSINDYLAWYQQKPGKAPKLLIYKASTLASGVPSRFSGSGSGTDFTLTISSLQPEDFATYYCQQGYIITDIDNVFGTGTKVTVLGGGGGSGGGGSGGGGSGGGGSQVQLQESGPGLVKPSETLSLTCKVSGFSFSSGYDMCWIRQPPGKGLEWIGCVVAGSVDITYYASWAKGRVTISVDSSKNQFSLKLSSVTAADTAVYYCARKDAYSDAFNLWGQGTLVTVSS"
